The target of series [1] is DosR K182Q K182Q (Mycobacterium tuberculosis H37Rv) (UniProt P9WMF9). The experiment in a line: EMSA. Background: Mobility shift assays separate free from complexed probe on a gel.
Series [2] concerns the target DosR K182R K182R (Mycobacterium tuberculosis H37Rv) (UniProt P9WMF9). In words: EMSA.

For the sequence “TTGATGCCTCCTAATCGATGGAAACGGATGCCTTTGATCCGACCAGCCCATCGTGGCCAGGGCTAGGGACAGAAGTCCCCGAAGCGCGGGCCATTTGTCCGCGCCCGTCGGTGATCCACTTGGGGACCATTGACCCTGTTGTCTGCCA (double strand) [acr promoter fragment]”, the binding entry in series [1] was “binds more weakly”; in series [2], “binds”.

These data come from article PMC5861037.
